Data from article PMC10210160, “Structural and biochemical elucidation of class I hybrid cluster protein natively extracted from a marine methanogenic archaeon” (Frontiers in Microbiology, 2023).

Key:
[1] = biological target: T1, MtHCP (hybrid cluster protein, class I) (Methanothermococcus thermolithotrophicus, UniProt A0AA82WPD8); experiment: X-ray crystal structure, […] Å; assay type: binding; settings: as isolated, reduced state (MtHCPred)
T1 construct: gene hcp; native anaerobic purification from the archaeon, untagged; five extra N-terminal residues versus WP_026182881.1 (mispredicted start Met)
T1 sequence (A0AA82WPD8 1-548): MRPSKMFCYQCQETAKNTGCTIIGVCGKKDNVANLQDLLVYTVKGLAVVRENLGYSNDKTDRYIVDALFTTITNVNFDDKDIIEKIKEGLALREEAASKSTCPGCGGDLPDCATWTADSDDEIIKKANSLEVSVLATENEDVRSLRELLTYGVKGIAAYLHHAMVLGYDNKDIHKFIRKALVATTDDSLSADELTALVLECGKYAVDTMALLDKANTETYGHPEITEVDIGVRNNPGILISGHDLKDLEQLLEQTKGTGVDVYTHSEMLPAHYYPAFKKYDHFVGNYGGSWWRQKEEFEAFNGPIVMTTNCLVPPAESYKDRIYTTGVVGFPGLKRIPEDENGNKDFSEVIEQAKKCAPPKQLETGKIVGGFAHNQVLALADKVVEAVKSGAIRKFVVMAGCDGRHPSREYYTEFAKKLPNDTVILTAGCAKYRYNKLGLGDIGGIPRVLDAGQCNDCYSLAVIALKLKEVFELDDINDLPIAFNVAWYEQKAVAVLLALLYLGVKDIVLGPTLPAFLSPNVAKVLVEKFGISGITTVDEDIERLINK

purified protein = substrate: NO; experiment: purified protein; assay type: biochemical, Methanothermococcus thermolithotrophicus; settings: 10 mM methyl viologen, 75 μM dithionite, 10 μM EDTA, 50 mM HEPES pH 7.35, 50°C, anaerobic

Row | Molecule | X-ray crystal structure, 1.45 Å [1] | Km (purified protein) [µM] | kcat (purified protein) [s⁻¹]
1 | [S]12[Fe]3[S]4[Fe]1[S]1[Fe]2[S]3[Fe]41 [[4Fe-4S] cluster] | harbouring a cubane [4Fe-4S] cluster and the hybrid cluster |  | 
2 | MtHCP (hybrid cluster protein, class I) (Methanothermococcus thermolithotrophicus DSM 2095) (protein, native anaerobic purification from the archaeon, untagged; five extra N-terminal residues versus WP_026182881.1 (mispredicted start Met)) MRPSKMFCYQCQETAKNTGCTIIGVCGKKDNVANLQDLLVYTVKGLAVVRENLGYSNDKTDRYIVDALFTTITNVNFDDKDIIEKIKEGLALREEAASKSTCPGCGGDLPDCATWTADSDDEIIKKANSLEVSVLATENEDVRSLRELLTYGVKGIAAYLHHAMVLGYDNKDIHKFIRKALVATTDDSLSADELTALVLECGKYAVDTMALLDKANTETYGHPEITEVDIGVRNNPGILISGHDLKDLEQLLEQTKGTGVDVYTHSEMLPAHYYPAFKKYDHFVGNYGGSWWRQKEEFEAFNGPIVMTTNCLVPPAESYKDRIYTTGVVGFPGLKRIPEDENGNKDFSEVIEQAKKCAPPKQLETGKIVGGFAHNQVLALADKVVEAVKSGAIRKFVVMAGCDGRHPSREYYTEFAKKLPNDTVILTAGCAKYRYNKLGLGDIGGIPRVLDAGQCNDCYSLAVIALKLKEVFELDDINDLPIAFNVAWYEQKAVAVLLALLYLGVKDIVLGPTLPAFLSPNVAKVLVEKFGISGITTVDEDIERLINK |  | 2200 ± 500 | 0.072
